Experimental data taken from US20210388087A1 (Chugai, published 2021).

These binders were tested against T1, Human CD137 ECD (human) (assay: Biacore SPR, vs parent H183/L072).
T1 construct: entry includes C-terminal His-tag and biotin acceptor peptide; also called human CD137 extracellular domain; 4-1BB
T1 sequence (chain, as listed by the source limits assumed): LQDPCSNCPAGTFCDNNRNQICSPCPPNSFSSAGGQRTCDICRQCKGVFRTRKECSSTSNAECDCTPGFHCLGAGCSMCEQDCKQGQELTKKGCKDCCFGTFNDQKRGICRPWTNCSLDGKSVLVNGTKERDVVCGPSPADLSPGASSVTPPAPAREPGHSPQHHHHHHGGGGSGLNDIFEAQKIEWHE

| fold change of affinity [fold] | Binder |
| --- | --- |
| 0 | H183/L072 VL P56W (antibody, name in Kabat numbering, V domains shown, Dual-Ig) VH: QVQLVESGGGLVQPGRSLRLSCAASGFTFSNAWMHWVRQAPGKGLEWVAQIKDKGNAYAAYYAPSVKGRFTISRDDSKNSIYLQMNSLKTEDTAVYYCHYVHYASASTVLPAFGVDAWGQGTTVTVSS VL: DIVMTQSPLSLPVTPGEPASISCQASQELVHMNRNTYLHWYQQKPGQAPRLLIYKVSNRFWGVPDRFSGSGSGTDFTLKISRVEAEDVGVYYCAQGTSVPFTFGQGTKLEIK |
| 0 | H183/L072 VL P95T (antibody, name in Kabat numbering, V domains shown, Dual-Ig) VH: QVQLVESGGGLVQPGRSLRLSCAASGFTFSNAWMHWVRQAPGKGLEWVAQIKDKGNAYAAYYAPSVKGRFTISRDDSKNSIYLQMNSLKTEDTAVYYCHYVHYASASTVLPAFGVDAWGQGTTVTVSS VL: DIVMTQSPLSLPVTPGEPASISCQASQELVHMNRNTYLHWYQQKPGQAPRLLIYKVSNRFPGVPDRFSGSGSGTDFTLKISRVEAEDVGVYYCAQGTSVTFTFGQGTKLEIK |
| 0 | H183/L072 VL P95S (antibody, name in Kabat numbering, V domains shown, Dual-Ig) VH: QVQLVESGGGLVQPGRSLRLSCAASGFTFSNAWMHWVRQAPGKGLEWVAQIKDKGNAYAAYYAPSVKGRFTISRDDSKNSIYLQMNSLKTEDTAVYYCHYVHYASASTVLPAFGVDAWGQGTTVTVSS VL: DIVMTQSPLSLPVTPGEPASISCQASQELVHMNRNTYLHWYQQKPGQAPRLLIYKVSNRFPGVPDRFSGSGSGTDFTLKISRVEAEDVGVYYCAQGTSVSFTFGQGTKLEIK |
| 1 | H183/L072 VL Q24A (antibody, name in Kabat numbering, V domains shown, Dual-Ig) VH: QVQLVESGGGLVQPGRSLRLSCAASGFTFSNAWMHWVRQAPGKGLEWVAQIKDKGNAYAAYYAPSVKGRFTISRDDSKNSIYLQMNSLKTEDTAVYYCHYVHYASASTVLPAFGVDAWGQGTTVTVSS VL: DIVMTQSPLSLPVTPGEPASISCAASQELVHMNRNTYLHWYQQKPGQAPRLLIYKVSNRFPGVPDRFSGSGSGTDFTLKISRVEAEDVGVYYCAQGTSVPFTFGQGTKLEIK |
| 0 | H183/L072 VL P95K (antibody, name in Kabat numbering, V domains shown, Dual-Ig) VH: QVQLVESGGGLVQPGRSLRLSCAASGFTFSNAWMHWVRQAPGKGLEWVAQIKDKGNAYAAYYAPSVKGRFTISRDDSKNSIYLQMNSLKTEDTAVYYCHYVHYASASTVLPAFGVDAWGQGTTVTVSS VL: DIVMTQSPLSLPVTPGEPASISCQASQELVHMNRNTYLHWYQQKPGQAPRLLIYKVSNRFPGVPDRFSGSGSGTDFTLKISRVEAEDVGVYYCAQGTSVKFTFGQGTKLEIK |
| 0 | H183/L072 VL P95Q (antibody, name in Kabat numbering, V domains shown, Dual-Ig) VH: QVQLVESGGGLVQPGRSLRLSCAASGFTFSNAWMHWVRQAPGKGLEWVAQIKDKGNAYAAYYAPSVKGRFTISRDDSKNSIYLQMNSLKTEDTAVYYCHYVHYASASTVLPAFGVDAWGQGTTVTVSS VL: DIVMTQSPLSLPVTPGEPASISCQASQELVHMNRNTYLHWYQQKPGQAPRLLIYKVSNRFPGVPDRFSGSGSGTDFTLKISRVEAEDVGVYYCAQGTSVQFTFGQGTKLEIK |
| 0 | H183/L072 VL P95L (antibody, name in Kabat numbering, V domains shown, Dual-Ig) VH: QVQLVESGGGLVQPGRSLRLSCAASGFTFSNAWMHWVRQAPGKGLEWVAQIKDKGNAYAAYYAPSVKGRFTISRDDSKNSIYLQMNSLKTEDTAVYYCHYVHYASASTVLPAFGVDAWGQGTTVTVSS VL: DIVMTQSPLSLPVTPGEPASISCQASQELVHMNRNTYLHWYQQKPGQAPRLLIYKVSNRFPGVPDRFSGSGSGTDFTLKISRVEAEDVGVYYCAQGTSVLFTFGQGTKLEIK |
| 0 | H183/L072 VL P95I (antibody, name in Kabat numbering, V domains shown, Dual-Ig) VH: QVQLVESGGGLVQPGRSLRLSCAASGFTFSNAWMHWVRQAPGKGLEWVAQIKDKGNAYAAYYAPSVKGRFTISRDDSKNSIYLQMNSLKTEDTAVYYCHYVHYASASTVLPAFGVDAWGQGTTVTVSS VL: DIVMTQSPLSLPVTPGEPASISCQASQELVHMNRNTYLHWYQQKPGQAPRLLIYKVSNRFPGVPDRFSGSGSGTDFTLKISRVEAEDVGVYYCAQGTSVIFTFGQGTKLEIK |
| 0 | H183/L072 VL P95H (antibody, name in Kabat numbering, V domains shown, Dual-Ig) VH: QVQLVESGGGLVQPGRSLRLSCAASGFTFSNAWMHWVRQAPGKGLEWVAQIKDKGNAYAAYYAPSVKGRFTISRDDSKNSIYLQMNSLKTEDTAVYYCHYVHYASASTVLPAFGVDAWGQGTTVTVSS VL: DIVMTQSPLSLPVTPGEPASISCQASQELVHMNRNTYLHWYQQKPGQAPRLLIYKVSNRFPGVPDRFSGSGSGTDFTLKISRVEAEDVGVYYCAQGTSVHFTFGQGTKLEIK |
| 0 | H183/L072 VL P95W (antibody, name in Kabat numbering, V domains shown, Dual-Ig) VH: QVQLVESGGGLVQPGRSLRLSCAASGFTFSNAWMHWVRQAPGKGLEWVAQIKDKGNAYAAYYAPSVKGRFTISRDDSKNSIYLQMNSLKTEDTAVYYCHYVHYASASTVLPAFGVDAWGQGTTVTVSS VL: DIVMTQSPLSLPVTPGEPASISCQASQELVHMNRNTYLHWYQQKPGQAPRLLIYKVSNRFPGVPDRFSGSGSGTDFTLKISRVEAEDVGVYYCAQGTSVWFTFGQGTKLEIK |
| 0.9 | H183/L072 VL Q24D (antibody, name in Kabat numbering, V domains shown, Dual-Ig) VH: QVQLVESGGGLVQPGRSLRLSCAASGFTFSNAWMHWVRQAPGKGLEWVAQIKDKGNAYAAYYAPSVKGRFTISRDDSKNSIYLQMNSLKTEDTAVYYCHYVHYASASTVLPAFGVDAWGQGTTVTVSS VL: DIVMTQSPLSLPVTPGEPASISCDASQELVHMNRNTYLHWYQQKPGQAPRLLIYKVSNRFPGVPDRFSGSGSGTDFTLKISRVEAEDVGVYYCAQGTSVPFTFGQGTKLEIK |
| 0 | H183/L072 VL P95V (antibody, name in Kabat numbering, V domains shown, Dual-Ig) VH: QVQLVESGGGLVQPGRSLRLSCAASGFTFSNAWMHWVRQAPGKGLEWVAQIKDKGNAYAAYYAPSVKGRFTISRDDSKNSIYLQMNSLKTEDTAVYYCHYVHYASASTVLPAFGVDAWGQGTTVTVSS VL: DIVMTQSPLSLPVTPGEPASISCQASQELVHMNRNTYLHWYQQKPGQAPRLLIYKVSNRFPGVPDRFSGSGSGTDFTLKISRVEAEDVGVYYCAQGTSVVFTFGQGTKLEIK |
| 0 | H183/L072 VL P95R (antibody, name in Kabat numbering, V domains shown, Dual-Ig) VH: QVQLVESGGGLVQPGRSLRLSCAASGFTFSNAWMHWVRQAPGKGLEWVAQIKDKGNAYAAYYAPSVKGRFTISRDDSKNSIYLQMNSLKTEDTAVYYCHYVHYASASTVLPAFGVDAWGQGTTVTVSS VL: DIVMTQSPLSLPVTPGEPASISCQASQELVHMNRNTYLHWYQQKPGQAPRLLIYKVSNRFPGVPDRFSGSGSGTDFTLKISRVEAEDVGVYYCAQGTSVRFTFGQGTKLEIK |
| 0 | H183/L072 VL P95D (antibody, name in Kabat numbering, V domains shown, Dual-Ig) VH: QVQLVESGGGLVQPGRSLRLSCAASGFTFSNAWMHWVRQAPGKGLEWVAQIKDKGNAYAAYYAPSVKGRFTISRDDSKNSIYLQMNSLKTEDTAVYYCHYVHYASASTVLPAFGVDAWGQGTTVTVSS VL: DIVMTQSPLSLPVTPGEPASISCQASQELVHMNRNTYLHWYQQKPGQAPRLLIYKVSNRFPGVPDRFSGSGSGTDFTLKISRVEAEDVGVYYCAQGTSVDFTFGQGTKLEIK |
| 0 | H183/L072 VL P95E (antibody, name in Kabat numbering, V domains shown, Dual-Ig) VH: QVQLVESGGGLVQPGRSLRLSCAASGFTFSNAWMHWVRQAPGKGLEWVAQIKDKGNAYAAYYAPSVKGRFTISRDDSKNSIYLQMNSLKTEDTAVYYCHYVHYASASTVLPAFGVDAWGQGTTVTVSS VL: DIVMTQSPLSLPVTPGEPASISCQASQELVHMNRNTYLHWYQQKPGQAPRLLIYKVSNRFPGVPDRFSGSGSGTDFTLKISRVEAEDVGVYYCAQGTSVEFTFGQGTKLEIK |
| 0 | H183/L072 VL P95F (antibody, name in Kabat numbering, V domains shown, Dual-Ig) VH: QVQLVESGGGLVQPGRSLRLSCAASGFTFSNAWMHWVRQAPGKGLEWVAQIKDKGNAYAAYYAPSVKGRFTISRDDSKNSIYLQMNSLKTEDTAVYYCHYVHYASASTVLPAFGVDAWGQGTTVTVSS VL: DIVMTQSPLSLPVTPGEPASISCQASQELVHMNRNTYLHWYQQKPGQAPRLLIYKVSNRFPGVPDRFSGSGSGTDFTLKISRVEAEDVGVYYCAQGTSVFFTFGQGTKLEIK |
| 0 | H183/L072 VL P95A (antibody, name in Kabat numbering, V domains shown, Dual-Ig) VH: QVQLVESGGGLVQPGRSLRLSCAASGFTFSNAWMHWVRQAPGKGLEWVAQIKDKGNAYAAYYAPSVKGRFTISRDDSKNSIYLQMNSLKTEDTAVYYCHYVHYASASTVLPAFGVDAWGQGTTVTVSS VL: DIVMTQSPLSLPVTPGEPASISCQASQELVHMNRNTYLHWYQQKPGQAPRLLIYKVSNRFPGVPDRFSGSGSGTDFTLKISRVEAEDVGVYYCAQGTSVAFTFGQGTKLEIK |
| 0 | H183/L072 VL P95N (antibody, name in Kabat numbering, V domains shown, Dual-Ig) VH: QVQLVESGGGLVQPGRSLRLSCAASGFTFSNAWMHWVRQAPGKGLEWVAQIKDKGNAYAAYYAPSVKGRFTISRDDSKNSIYLQMNSLKTEDTAVYYCHYVHYASASTVLPAFGVDAWGQGTTVTVSS VL: DIVMTQSPLSLPVTPGEPASISCQASQELVHMNRNTYLHWYQQKPGQAPRLLIYKVSNRFPGVPDRFSGSGSGTDFTLKISRVEAEDVGVYYCAQGTSVNFTFGQGTKLEIK |
| 0 | H183/L072 VL P95G (antibody, name in Kabat numbering, V domains shown, Dual-Ig) VH: QVQLVESGGGLVQPGRSLRLSCAASGFTFSNAWMHWVRQAPGKGLEWVAQIKDKGNAYAAYYAPSVKGRFTISRDDSKNSIYLQMNSLKTEDTAVYYCHYVHYASASTVLPAFGVDAWGQGTTVTVSS VL: DIVMTQSPLSLPVTPGEPASISCQASQELVHMNRNTYLHWYQQKPGQAPRLLIYKVSNRFPGVPDRFSGSGSGTDFTLKISRVEAEDVGVYYCAQGTSVGFTFGQGTKLEIK |
| 0 | H183/L072 VL P95M (antibody, name in Kabat numbering, V domains shown, Dual-Ig) VH: QVQLVESGGGLVQPGRSLRLSCAASGFTFSNAWMHWVRQAPGKGLEWVAQIKDKGNAYAAYYAPSVKGRFTISRDDSKNSIYLQMNSLKTEDTAVYYCHYVHYASASTVLPAFGVDAWGQGTTVTVSS VL: DIVMTQSPLSLPVTPGEPASISCQASQELVHMNRNTYLHWYQQKPGQAPRLLIYKVSNRFPGVPDRFSGSGSGTDFTLKISRVEAEDVGVYYCAQGTSVMFTFGQGTKLEIK |
